Numbering of substitutions follows the chain as printed.
How the values were obtained:
[1] = target: the molecule itself; test: BLI (forteBIO Octet RED96), antibody captured on ProA biosensor, self-association in acetate buffer pH 5.5; acetate at pH 5.5; self-association
Method: (§1) Self-association binding constant: At high concentrations, undesirable solution properties such as self-association can pose significant challenges to preparation development. In addition to potential manufacturing and delivery challenges, self-associating substances can also affect biological activity and pharmacokinetic properties.
(§2) The self-association binding constants were measured using the forteBIO Octet technique (Octet RED96). The antibodies were diluted to 150 ug/mL with an acetate buffer (pH 5.5), and then added to sample plates (forteBIO, Greiner, PN655209). A ProA biosensor (forteBIO) was used to capture antibodies. Measurements were performed using basic dynamics under the following settings: baseline 60/load 900/baseline 60/association 300/dissociation 300. The association (Kon) and dissociation (Kdis) rate constants of the target antigen were calculated and used to obtain the dissociation constant (KD). All calculations were performed using software provided by forteBIO.

[2] = target: the molecule itself; test: BLI (forteBIO Octet RED96), antibody captured on ProA biosensor, self-association in acetate buffer pH 5.5
Method: as §1, §2

B1: M-751 (antibody, V domains shown)
VH: QVQLVQSGAEVKKPGSSVKVSCKASGYTFTNYWMNWVRQAPGQGLEWMGMIHPSDSETRLNQKFQGRVTITVDKSTSTAYMELSSLRSEDTAVYYCAREGRLGLRSYAMDYWGQGTLVTVSS
VL: DIQMTQSPSSLSASVGDRVTITCRSSQSLLNSSNQKNYLAWYQQKPGKVPKLLIYFASTRESGVPSRFSGSGSGTDFTLTISSLQPEDVATYFCQQHYITPLTFGGGTKVEIKR
notes: also called candidate antibody
Protein B1 has a Kd [1] of 438 µM.

B2: M-747 (antibody, human IgG1, kappa, V domains shown)
VH: B1 VH with A9S, V11L, S16A, Q65K, G66D
VL: DIVMTQSPDSLAVSLGERATINCKSSQSLLNSSNQKNYLAWYQQKPGQPPKLLVYFASTRESGVPDRFSGSGSGTDFTLTISSLQAEDVAVYFCQQHYITPLTFGGGTKVEIKR
notes: Humanized anti-DKK2 parental antibody; also called parental antibody; parental molecule
Protein B2 has a Kd [2] of 208 µM.

B3: M-755 (antibody, V domains shown)
VH: B1 VH with S16A, F64L, S84R, E89D
VL: B1 VL with V49A, V89F
notes: as for B1
With B3 the Kd [2] was 456 µM.

— US20230406915A1 (HJB HANGZHOU, published 2023)
